Data on 71 molecules can be found in US20250011363A1, “OPTIMIZED SHORTENED PEPTIDE THAT BINDS TO ACETYLCHOLINE RECEPTOR, AND USE THEREOF” (SKINMED CO., LTD., priority 2021, published 2025).

The target in experiment [1] is acetylcholine receptor. In words: SPR, receptor immobilized, peptide 10 uM.
The target in experiment [2] is acetylcholine receptor. In words: SPR, AchR immobilised on CM5 chip, peptide 10 uM.

RAPWR [5mer-1062] gave a Binding affinity (RU) in the experiment with acetylcholine receptor [1] of 24 RU. Turning to KRTKGR [6mer-1-947], the Binding affinity (RU) in the experiment with acetylcholine receptor [2] stood at 31 RU. With KTHIK [5mer-1060], the Binding affinity (RU) with acetylcholine receptor [1] stood at 29 RU.

In the experiment with acetylcholine receptor [1], RFDPK [5mer-1057] had a Binding affinity (RU) of 13 RU. For RRPWNR [6mer-1-933], in the experiment with acetylcholine receptor [2], the Binding affinity (RU) came out at 28 RU. For the molecule RNKVR [5mer-1054], the Binding affinity (RU) with acetylcholine receptor [1] was determined as 21 RU. Same read-out and setting: with RFHFK [5mer-767] the figure was 12 RU; with KYCMR [5mer-757], 17 RU. The molecule RPSFK [5mer-1069] came in with a Binding affinity (RU) with acetylcholine receptor [1] of 31 RU.

For the molecule RMAGR [5mer-1059], in the experiment with acetylcholine receptor [1], the Binding affinity (RU) worked out at 29 RU. KRYAGR [6mer-1-958] gave a Binding affinity (RU) in the experiment with acetylcholine receptor [2] of 43 RU. Regarding KRFEFK [6mer-1-932], the Binding affinity (RU) with acetylcholine receptor [2] amounted to 38 RU. With RCHVR [5mer-763], in the experiment with acetylcholine receptor [1], the Binding affinity (RU) came out at 30 RU. RKTPKK [6mer-1-941] showed a Binding affinity (RU) with acetylcholine receptor [2] of 29 RU. RNEFR [5mer-765] had a Binding affinity (RU) in the experiment with acetylcholine receptor [1] of 12 RU. RDEAK [5mer-1073] displayed a Binding affinity (RU) with acetylcholine receptor [1] of 29 RU. In the experiment with acetylcholine receptor [2], KKEHDK [6mer-1-943] displayed a Binding affinity (RU) of 43 RU.

RCTPK [5mer-1056] had a Binding affinity (RU) with acetylcholine receptor [1] of 11 RU. KRHDKK [6mer-1-952] came in with a Binding affinity (RU) with acetylcholine receptor [2] of 28 RU. Regarding RKWVK [5mer-771], the Binding affinity (RU) with acetylcholine receptor [1] turned out to be 24 RU. In the experiment with acetylcholine receptor [2], RRMMVR [6mer-1-942] displayed a Binding affinity (RU) of 37 RU. KNWDR [5mer-755] returned a Binding affinity (RU) with acetylcholine receptor [1] of 15 RU. In the experiment with acetylcholine receptor [2], KKPPDK [6mer-1-957] showed a Binding affinity (RU) of 43 RU. KTWPK [5mer-764]: the Binding affinity (RU) in the experiment with acetylcholine receptor [1] came to 19 RU. Consider RFWVK [5mer-1066], for which the Binding affinity (RU) with acetylcholine receptor [1] worked out at 25 RU.

Turning to RKAMDK [6mer-1-951], the Binding affinity (RU) in the experiment with acetylcholine receptor [2] was 29 RU.

In the case of RKECFK [6mer-1-955], the Binding affinity (RU) with acetylcholine receptor [2] came to 23 RU.

On to KCDFK [5mer-758], for which the Binding affinity (RU) with acetylcholine receptor [1] stood at 30 RU. The molecule RPCPR [5mer-1074] came in with a Binding affinity (RU) with acetylcholine receptor [1] of 17 RU.

KKAKGR [6mer-1-954] showed a Binding affinity (RU) in the experiment with acetylcholine receptor [2] of 41 RU. As for RYEGR [5mer-1071], in the experiment with acetylcholine receptor [1], the Binding affinity (RU) was 16 RU. Still for that read-out and setting: with RHTVK [5mer-775] the figure was 23 RU; with RPNMR [5mer-773], 25 RU; with KHHEK [5mer-1055], 15 RU. In the experiment with acetylcholine receptor [2], RKTSIK [6mer-1-945] registered a Binding affinity (RU) of 31 RU. Still for that read-out and setting: with RRCEPR [6mer-1-946] the figure was 31 RU. As to KHENK [5mer-1067], the Binding affinity (RU) with acetylcholine receptor [1] was found to be 23 RU. KKIAWK [6mer-1-938] gave a Binding affinity (RU) in the experiment with acetylcholine receptor [2] of 28 RU. Still for that read-out and setting: with RKETDR [6mer-1-936] the figure was 36 RU; with KRKSNK [6mer-1-956], 34 RU. RMHKK [5mer-1068] gave a Binding affinity (RU) with acetylcholine receptor [1] of 11 RU. In the experiment with acetylcholine receptor [1], RPHVK [5mer-1063] yielded a Binding affinity (RU) of 20 RU. The same measure, in the same setting: with RETGK [5mer-1070] the figure was 26 RU; with KNPIR [5mer-1065], 18 RU.

For KDWPK [5mer-1072], the Binding affinity (RU) with acetylcholine receptor [1] was found to be 32 RU. In the case of RCDWR [5mer-756], the Binding affinity (RU) with acetylcholine receptor [1] turned out to be 18 RU.

For KTEWK [5mer-769], the Binding affinity (RU) with acetylcholine receptor [1] was found to be 32 RU. Same read-out and setting: with RDSWR [5mer-768] the figure was 11 RU. In the experiment with acetylcholine receptor [2], RKFTVR [6mer-1-948] showed a Binding affinity (RU) of 24 RU.

In the case of KCMKR [5mer-1064], in the experiment with acetylcholine receptor [1], the Binding affinity (RU) was 20 RU. The molecule RKPAGK [6mer-1-944] gave a Binding affinity (RU) in the experiment with acetylcholine receptor [2] of 25 RU. For RMPWR [5mer-761], the Binding affinity (RU) in the experiment with acetylcholine receptor [1] is 31 RU. Still for that read-out and setting: the result for KHKMR [5mer-759] reads 17 RU. Molecule KRTNGK [6mer-1-953] displayed a Binding affinity (RU) with acetylcholine receptor [2] of 26 RU.

In the case of KMPER [5mer-762], the Binding affinity (RU) with acetylcholine receptor [1] is 21 RU. On to KYWFK [5mer-772], for which, in the experiment with acetylcholine receptor [1], the Binding affinity (RU) came to 11 RU. As to KKPFR [5mer-770], in the experiment with acetylcholine receptor [1], the Binding affinity (RU) came out at 11 RU. In the case of KHEHK [5mer-1053], the Binding affinity (RU) in the experiment with acetylcholine receptor [1] was determined as 27 RU. The molecule RKKDIK [6mer-1-935] yielded a Binding affinity (RU) with acetylcholine receptor [2] of 40 RU.

In the experiment with acetylcholine receptor [2], KRPPGK [6mer-1-934] returned a Binding affinity (RU) of 39 RU. RTCDR [5mer-774] came in with a Binding affinity (RU) in the experiment with acetylcholine receptor [1] of 25 RU.

In turn, RKEMPR [6mer-1-949] had a Binding affinity (RU) in the experiment with acetylcholine receptor [2] of 37 RU. As to KDSFR [5mer-1061], the Binding affinity (RU) with acetylcholine receptor [1] was determined as 24 RU. RKPEDR [6mer-1-940] displayed a Binding affinity (RU) with acetylcholine receptor [2] of 29 RU. The same measure, in the same setting: with RKEDKR [6mer-1-950] the figure was 29 RU. Molecule RIWAR [5mer-760] had a Binding affinity (RU) with acetylcholine receptor [1] of 19 RU. Turning to KIPWR [5mer-1058], the Binding affinity (RU) with acetylcholine receptor [1] was found to be 25 RU. In the case of KRNDFK [6mer-1-939], the Binding affinity (RU) with acetylcholine receptor [2] was found to be 41 RU. For RNMEK [5mer-766], the Binding affinity (RU) in the experiment with acetylcholine receptor [1] came out at 30 RU. With RKNER [5mer-754], the Binding affinity (RU) with acetylcholine receptor [1] was found to be 29 RU. Take RKPTNR [6mer-1-937]: in the experiment with acetylcholine receptor [2], the Binding affinity (RU) is 34 RU.
